Reference: US20060127407A1 (IMMUNOGEN, published 2006)

What was measured:
alphaVbeta3 integrin [1] = target: T1, alphaVbeta3 integrin (human, UniProt P06756 31-1048; P05106 27-788); assay: saturation binding curve on αvβ3 coated plates
T1 construct: Purified integrin coated on plates; also called αvβ3; αVβ3

alphaVbeta3 integrin [2] = target: T1, alphaVbeta3 integrin; assay: ELISA on alphaVbeta3 protein, absorbance against concentration
[3] = target: T2, alphaV subunit integrins on human tumor cells (HT29, A549, A2780) (human, UniProt P06756 31-1048); assay: flow cytometry on A549 human lung carcinoma cells, FITC anti-human antibody
T2 construct: whole, on cells; the cell line of each number is named under assay; also called alphaV integrins on living cells
T2 sequence (P06756 31-1048): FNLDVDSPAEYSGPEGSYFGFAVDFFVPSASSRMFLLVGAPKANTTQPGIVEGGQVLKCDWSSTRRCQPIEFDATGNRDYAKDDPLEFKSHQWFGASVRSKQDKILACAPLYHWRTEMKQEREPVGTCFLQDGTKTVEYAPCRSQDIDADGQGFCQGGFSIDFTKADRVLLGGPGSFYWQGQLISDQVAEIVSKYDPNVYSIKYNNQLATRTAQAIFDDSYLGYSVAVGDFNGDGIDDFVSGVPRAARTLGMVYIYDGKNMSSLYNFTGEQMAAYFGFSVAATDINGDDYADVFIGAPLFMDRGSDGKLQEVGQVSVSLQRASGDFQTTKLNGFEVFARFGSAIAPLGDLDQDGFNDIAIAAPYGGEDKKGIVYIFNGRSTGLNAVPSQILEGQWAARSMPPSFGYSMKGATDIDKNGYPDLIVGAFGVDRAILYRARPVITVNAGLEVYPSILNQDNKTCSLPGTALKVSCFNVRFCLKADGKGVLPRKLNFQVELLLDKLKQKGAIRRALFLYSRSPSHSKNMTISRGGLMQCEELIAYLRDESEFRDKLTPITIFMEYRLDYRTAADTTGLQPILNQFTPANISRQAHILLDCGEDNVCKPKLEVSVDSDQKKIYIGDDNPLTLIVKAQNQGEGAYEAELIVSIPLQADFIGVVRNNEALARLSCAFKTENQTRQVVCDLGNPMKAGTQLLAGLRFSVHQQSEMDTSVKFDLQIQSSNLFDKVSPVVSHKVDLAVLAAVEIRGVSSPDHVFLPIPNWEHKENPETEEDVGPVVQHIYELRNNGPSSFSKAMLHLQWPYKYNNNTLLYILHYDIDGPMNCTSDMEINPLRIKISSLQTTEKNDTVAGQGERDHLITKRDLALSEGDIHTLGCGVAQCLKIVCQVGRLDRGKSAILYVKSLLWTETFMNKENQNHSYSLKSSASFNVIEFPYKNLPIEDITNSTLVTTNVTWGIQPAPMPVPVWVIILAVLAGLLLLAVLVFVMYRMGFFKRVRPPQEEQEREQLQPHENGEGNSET
Description: (§1) Cells: HT29 human colon carcinoma and A549 human lung carcinoma cells were from ATCC and maintained in alphaMEM supplemented with 10% fetal bovine serum (FBS). A2780 human ovarian carcinoma cells were obtained from National Cancer Institute. A2780 cells were cultured in RPMI 1640 medium containing 10% FBS. […] Absence of primary antibody or substitution of primary antibody with isotype matched antibody served as negative controls. Cells were immediately analyzed with a FACS Scan II flow cytometer (Becton Dickinson, Mountain View, Calif.). Data was analyzed with GraphPad Prism software using non-liner regression to determine the concentration at 50% maximal binding (Table 7).

alphaVbeta5 integrin [4] = target: T3, alphaVbeta5 integrin (UniProt P06756 31-1048; P18084 24-799); assay: saturation binding curve, 125-I CNTO 95 on αvβ5 coated plates
T3 construct: Purified integrin coated on plates; also called αvβ5; alphaVbetaS protein
T3 sequence (P06756 31-1048, chain 1 of 2): as the sequence (P06756 31-1048) above
T3 sequence (P18084 24-799, chain 2 of 2): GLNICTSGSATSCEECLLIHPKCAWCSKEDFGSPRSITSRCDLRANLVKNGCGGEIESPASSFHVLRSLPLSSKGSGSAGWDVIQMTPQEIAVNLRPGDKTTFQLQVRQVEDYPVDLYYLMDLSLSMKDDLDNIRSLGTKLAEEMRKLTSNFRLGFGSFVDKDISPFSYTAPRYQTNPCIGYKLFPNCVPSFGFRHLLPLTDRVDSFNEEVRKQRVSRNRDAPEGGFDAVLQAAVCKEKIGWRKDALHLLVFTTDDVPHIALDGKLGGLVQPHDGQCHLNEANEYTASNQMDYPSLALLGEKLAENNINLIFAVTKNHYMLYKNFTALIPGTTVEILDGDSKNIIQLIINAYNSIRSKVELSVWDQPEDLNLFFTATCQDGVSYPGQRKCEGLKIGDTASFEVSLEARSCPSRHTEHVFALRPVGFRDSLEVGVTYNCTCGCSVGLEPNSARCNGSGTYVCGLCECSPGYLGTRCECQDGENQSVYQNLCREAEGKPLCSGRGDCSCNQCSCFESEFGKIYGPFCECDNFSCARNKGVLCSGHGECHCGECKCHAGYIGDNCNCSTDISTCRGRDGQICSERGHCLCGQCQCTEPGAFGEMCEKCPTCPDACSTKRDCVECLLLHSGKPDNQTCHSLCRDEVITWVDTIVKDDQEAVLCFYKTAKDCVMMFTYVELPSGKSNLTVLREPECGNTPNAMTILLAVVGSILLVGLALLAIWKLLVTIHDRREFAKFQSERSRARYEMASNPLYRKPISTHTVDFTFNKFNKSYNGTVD
Description: (§2) A375S2 and M21 cells express both αvβ₃ and αᵥβ₅, HT-29 cells express αvβ5. For comparison, other Mabs capable of binding integrins were used. The Kd was calculated from a saturation binding curve in each case using multiple replicates of multiple lots of antibody.

[5] = target: T2, alphaV subunit integrins on human tumor …; assay: flow cytometry on A2780 human ovarian carcinoma cells, FITC anti-human antibody
Description: as §1

[6] = target: T2, alphaV subunit integrins on human tumor …; assay: flow cytometry on HT29 human colon carcinoma cells, FITC anti-human antibody
Description: as §1

alphaVbeta3 integrin [7] = target: T1, alphaVbeta3 integrin; assay: ELISA, purified antibody on alphaVbeta3
alphaVbeta3 integrin [8] = target: T1, alphaVbeta3 integrin; assay: saturation binding curve, 125-I CNTO 95 on αvβ3 coated plates
Description: as §2

alphaVbeta5 integrin [9] = target: T3, alphaVbeta5 integrin; assay: ELISA on alphaVbeta5 protein, absorbance against concentration

T1 sequence (P06756 31-1048, chain 1 of 2): as the sequence (P06756 31-1048) above
T1 sequence (P05106 27-788, chain 2 of 2): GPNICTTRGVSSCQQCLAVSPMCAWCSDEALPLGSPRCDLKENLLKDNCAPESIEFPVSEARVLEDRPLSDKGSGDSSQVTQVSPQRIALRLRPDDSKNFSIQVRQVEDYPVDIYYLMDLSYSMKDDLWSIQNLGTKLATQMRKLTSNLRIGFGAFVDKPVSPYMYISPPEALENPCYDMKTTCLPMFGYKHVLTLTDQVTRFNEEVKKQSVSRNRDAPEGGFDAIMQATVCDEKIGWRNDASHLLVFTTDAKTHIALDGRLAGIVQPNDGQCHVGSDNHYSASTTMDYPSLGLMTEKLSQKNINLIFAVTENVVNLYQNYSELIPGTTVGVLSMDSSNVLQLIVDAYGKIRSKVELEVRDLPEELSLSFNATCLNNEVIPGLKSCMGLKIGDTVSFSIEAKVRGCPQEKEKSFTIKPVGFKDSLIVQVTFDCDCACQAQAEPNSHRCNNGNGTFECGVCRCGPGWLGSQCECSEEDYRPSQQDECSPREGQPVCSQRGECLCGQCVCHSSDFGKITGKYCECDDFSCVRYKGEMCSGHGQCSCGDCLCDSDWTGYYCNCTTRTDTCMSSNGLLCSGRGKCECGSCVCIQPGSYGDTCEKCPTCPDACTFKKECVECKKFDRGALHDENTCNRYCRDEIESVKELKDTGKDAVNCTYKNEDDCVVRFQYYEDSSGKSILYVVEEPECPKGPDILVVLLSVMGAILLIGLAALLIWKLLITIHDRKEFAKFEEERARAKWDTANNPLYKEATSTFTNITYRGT

Binder | Kd (alphaVbeta3 integrin [1]) | Kd (alphaVbeta3 integrin [2]) | EC50 [3] | Kd (alphaVbeta5 integrin [4]) | EC50 [5] | EC50 [6] | EC50 (alphaVbeta3 integrin [7]) | Kd (alphaVbeta3 integrin [8]) | Kd (alphaVbeta5 integrin [9])
abciximab (Fab, V domains shown) VH: EVQLQQSGTVLARPGASVKMSCEASGYTFTNYWMHWVKQRPGQGLEWIGAIYPGNSDTSYIQKFKGKAKLTAVTSTTSVYMELSSLTNEDSAVYYCTLYDGYYVFAYWGQGTLVTVSA VL: EIVLTQSPVTLSVTPGDSVSLSCRASRDISNNLHWFQQTSHESPRLLIKYASQSMSGIPSRFSGSGSGTDFTLSINSVETEDFGMYFCQQTNSWPYTFGGGTKLEIK | 0.25 nM | – | – | – | – | – | – | – | –
Monoclonal antibody CNTO 95 (antibody, IgG1, V domains shown, also called C371A; Mab CNTO 95) VH: QVQLVESGGGVVQPGRSRRLSCAASGFTFSRYTMHWVRQAPGKGLEWVAVISFDGSNKYYVDSVKGRFTISRDNSENTLYLQVNILRAEDTAVYYCAREARGSYAFDIWGQGTMVTVSS VL: EIVLTQSPATLSLSPGERATLSCRASQSVSSYLAWYQQKPGQAPRLLIYDASNRATGIPARFSGSGSGTDFTLTISSLEPEDFAVYYCQQRSNWPPFTFGPGTKVDIK | – | ~3 nM | 180 µg/mL | 0.025 nM | 170 µg/mL | 140 µg/mL | 0.7 µg/mL | 0.21 nM | 0.03 nM
CNTO 364 (CNTO 95-SPP-DM1) (antibody, human IgG1, V domains shown, maytansinoid DM1 linked through SPP (disulfide) to amino acid side chains, positions not given, Antibody-drug conjugate of CNTO 95 (human IgG1 kappa); also called CNTO 95-DM1; the conjugate) VH: QVQLVESGGGVVQPGRSRRLSCAASGFTFSRYTMHWVRQAPGKGLEWVAVISFDGSNKYYVDSVKGRFTISRDNSENTLYLQVNILRAEDTAVYYCAREARGSYAFDIWGQGTMVTVSS VL: EIVLTQSPATLSLSPGERATLSCRASQSVSSYLAWYQQKPGQAPRLLIYDASNRATGIPARFSGSGSGTDFTLTISSLEPEDFAVYYCQQRSNWPPFTFGPGTKVDIK | – | ~3 nM | 270 µg/mL | – | 270 µg/mL | 190 µg/mL | – | – | 0.035 nM
